Results: publication PMC9405553, “G-Quadruplex Formed by the Promoter Region of the hTERT Gene: Structure-Driven Effects on DNA Mismatch Repair Functions”
Changes are numbered by the printed parent chain. Names may count otherwise.

Key:
ecMutS [1] = molecular target: T1, ecMutS (Escherichia coli, UniProt P23909 1-853); test: EMSA; 1 mM ADP, 5 mM MgCl2; ecMutS: 20 mM HEPES-KOH pH 7.9, 5 mM MgCl2, 120 mM KCl, 0.5 mg/mL BSA, 1 mM ADP, 37 C 15 min, 5 nM DNA; ecMutL/ngMutL: 20 mM HEPES pH 8.0, 100 mM KCl, 0.5 mg/mL BSA, 1 mM DTT, on ice 10 min, 20 nM DNA; gels in TAE at 4 C; settings: protein: recombinant, tags: N-terminal His6, chain copies: 2
T1 sequence: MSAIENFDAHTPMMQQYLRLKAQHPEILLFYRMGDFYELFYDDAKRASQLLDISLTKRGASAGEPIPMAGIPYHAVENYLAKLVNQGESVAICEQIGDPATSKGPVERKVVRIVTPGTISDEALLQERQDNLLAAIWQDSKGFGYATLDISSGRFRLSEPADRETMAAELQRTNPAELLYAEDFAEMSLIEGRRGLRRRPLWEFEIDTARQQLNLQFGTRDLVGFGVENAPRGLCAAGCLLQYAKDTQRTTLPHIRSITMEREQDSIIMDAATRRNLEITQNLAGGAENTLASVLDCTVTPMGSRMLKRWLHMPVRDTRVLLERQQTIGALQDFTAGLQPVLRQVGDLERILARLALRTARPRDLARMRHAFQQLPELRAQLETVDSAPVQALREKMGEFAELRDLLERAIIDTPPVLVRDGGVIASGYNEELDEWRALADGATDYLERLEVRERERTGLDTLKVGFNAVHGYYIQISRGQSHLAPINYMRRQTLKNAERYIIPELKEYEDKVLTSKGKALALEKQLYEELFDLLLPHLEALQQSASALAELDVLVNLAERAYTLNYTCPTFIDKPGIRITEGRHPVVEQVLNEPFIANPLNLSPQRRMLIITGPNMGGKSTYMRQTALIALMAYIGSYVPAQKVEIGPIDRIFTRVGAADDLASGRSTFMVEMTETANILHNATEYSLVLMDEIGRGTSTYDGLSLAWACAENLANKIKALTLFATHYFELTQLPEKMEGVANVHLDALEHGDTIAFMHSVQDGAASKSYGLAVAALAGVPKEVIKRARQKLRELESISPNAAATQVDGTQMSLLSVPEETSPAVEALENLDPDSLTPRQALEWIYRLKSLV

ngMutL = molecular target: T2, ngMutL (Neisseria gonorrhoeae (FA 1090 in Fig. …, UniProt Q5F8M6 1-658)); test: EMSA; ecMutS: 20 mM HEPES-KOH pH 7.9, 5 mM MgCl2, 120 mM KCl, 0.5 mg/mL BSA, 1 mM ADP, 37 C 15 min, 5 nM DNA; ecMutL/ngMutL: 20 mM HEPES pH 8.0, 100 mM KCl, 0.5 mg/mL BSA, 1 mM DTT, on ice 10 min, 20 nM DNA; gels in TAE at 4 C; settings: protein: recombinant, tags: N-terminal His6, chain copies: 2
T2 sequence: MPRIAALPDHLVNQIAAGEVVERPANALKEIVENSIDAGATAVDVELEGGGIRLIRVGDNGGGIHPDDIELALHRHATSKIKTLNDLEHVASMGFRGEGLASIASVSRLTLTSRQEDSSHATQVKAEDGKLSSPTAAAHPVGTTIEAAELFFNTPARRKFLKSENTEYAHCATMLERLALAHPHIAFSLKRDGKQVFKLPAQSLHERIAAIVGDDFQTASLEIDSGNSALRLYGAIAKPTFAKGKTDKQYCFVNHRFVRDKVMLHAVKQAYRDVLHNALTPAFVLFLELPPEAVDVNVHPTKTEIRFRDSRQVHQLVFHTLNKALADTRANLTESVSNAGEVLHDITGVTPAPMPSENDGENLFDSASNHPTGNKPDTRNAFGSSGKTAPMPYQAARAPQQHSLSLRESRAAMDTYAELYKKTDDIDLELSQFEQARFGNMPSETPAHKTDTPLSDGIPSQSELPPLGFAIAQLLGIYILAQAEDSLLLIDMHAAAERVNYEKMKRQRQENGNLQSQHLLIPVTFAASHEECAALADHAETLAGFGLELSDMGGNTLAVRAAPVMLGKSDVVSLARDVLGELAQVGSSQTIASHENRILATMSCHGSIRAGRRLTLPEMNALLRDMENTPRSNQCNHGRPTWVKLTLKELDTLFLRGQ

ecMutL = ecMutL (Escherichia coli (K12 in Fig. S2 legend), UniProt P23367 1-615); test: as above; settings: protein: recombinant, tags: N-terminal His6, chain copies: 2
Sequence of ecMutL (P23367 whole entry): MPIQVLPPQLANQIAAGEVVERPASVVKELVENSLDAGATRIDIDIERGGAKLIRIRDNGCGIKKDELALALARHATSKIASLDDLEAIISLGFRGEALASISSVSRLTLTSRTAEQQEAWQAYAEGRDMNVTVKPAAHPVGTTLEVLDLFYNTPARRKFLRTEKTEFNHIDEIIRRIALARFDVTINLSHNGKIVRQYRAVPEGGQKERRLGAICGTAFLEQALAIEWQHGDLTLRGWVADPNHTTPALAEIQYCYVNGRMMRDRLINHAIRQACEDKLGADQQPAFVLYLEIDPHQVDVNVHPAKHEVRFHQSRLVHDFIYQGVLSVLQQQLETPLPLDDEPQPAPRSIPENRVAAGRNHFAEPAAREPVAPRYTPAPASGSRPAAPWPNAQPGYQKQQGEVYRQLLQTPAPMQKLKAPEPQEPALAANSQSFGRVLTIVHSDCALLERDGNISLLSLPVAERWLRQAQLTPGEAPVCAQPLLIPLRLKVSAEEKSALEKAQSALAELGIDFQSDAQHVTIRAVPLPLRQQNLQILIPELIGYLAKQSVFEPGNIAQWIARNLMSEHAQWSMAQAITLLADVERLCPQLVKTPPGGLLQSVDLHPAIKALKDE

ecMutS [2] = molecular target: T1, ecMutS; test: competition; vs ds76-G/T-3', 65 nM ecMutS dimer; ecMutS: 20 mM HEPES-KOH pH 7.9, 5 mM MgCl2, 120 mM KCl, 0.5 mg/mL BSA, 1 mM ADP, 37 C 15 min, 5 nM DNA; ecMutL/ngMutL: 20 mM HEPES pH 8.0, 100 mM KCl, 0.5 mg/mL BSA, 1 mM DTT, on ice 10 min, 20 nM DNA; gels in TAE at 4 C; settings: protein: recombinant; tags: N-terminal His6; chain copies: 2; label: none; three stacked parallel intramolecular G4s
ecMutS [3] = molecular target: T1, ecMutS; test: EMSA; ecMutS: 20 mM HEPES-KOH pH 7.9, 5 mM MgCl2, 120 mM KCl, 0.5 mg/mL BSA, 1 mM ADP, 37 C 15 min, 5 nM DNA; ecMutL/ngMutL: 20 mM HEPES pH 8.0, 100 mM KCl, 0.5 mg/mL BSA, 1 mM DTT, on ice 10 min, 20 nM DNA; gels in TAE at 4 C; settings: protein: recombinant; tags: N-terminal His6; chain copies: 2; text says bottom strand; blunt, one T:G mismatch at strand 1 position 22
[4] = text says 5' for ecMutS assays, single parallel intramolecular G4
[5] = label: 5'-TAMRA, three stacked parallel intramolecular G4s
[6] = label: 3'-TAMRA, three stacked parallel intramolecular G4s

B1: 95G4 (structured_DNA)
DNA: ATAGGACGCTGACACTGGTGCTTGGCAGCTGAGCCATATTTGGGTGGGTGGGTGGGTTGCTCGAGTAACGCTCATAGGATCCAAGCGCGAAAGGA
ecMutS [1]; [4]
  Kd: 0.038 ± 0.005 µM
ngMutL; [4]
  Kd: 0.041 ± 0.001 µM
ecMutL; [4]
  Kd: 0.12 ± 0.02 µM

B2: WT-5' (structured_DNA)
DNA: GCCGCGGAAAGGAAGGGGAGGGGCTGGGAGGGCCCGGAGGGGGCTGGGCCGGGGACCCGGGAGGGGTCGGGACGGGGCGGGGTCCGCGCGGAGGAG
ecMutS [1]; [5]
  Kd: 0.015 ± 0.006 µM
ecMutL; [5]
  Kd: 0.115 ± 0.03 µM

B3: G228A-3' (structured_DNA)
DNA: B2 DNA with G39A
ngMutL; [6]
  Kd: 0.044 ± 0.003 µM

B4: G250A-5' (structured_DNA)
DNA: B2 DNA with G61A
ecMutS [1]; [5]
  Kd: 0.03 ± 0.007 µM
ecMutL; [5]
  Kd: 0.13 ± 0.03 µM

B5: G250A-3' (structured_DNA)
DNA: B2 DNA with G61A
ngMutL; [6]
  Kd: 0.042 ± 0.002 µM

B6: WT (structured_DNA)
DNA: B2 DNA
ecMutS [2]
  IC50: 0.032 ± 0.003 µM
  Ki: 0.028 ± 0.005 µM

B7: WT-3' (structured_DNA)
DNA: B2 DNA
ngMutL; [6]
  Kd: 0.049 ± 0.003 µM

B8: G242,243A-3' (structured_DNA)
DNA: B2 DNA with G53A, G54A
ngMutL; [6]
  Kd: 0.051 ± 0.002 µM

B9: G250A (unlabeled) (structured_DNA)
DNA: B2 DNA with G61A
ecMutS [2]
  IC50: 0.04 ± 0.015 µM
  Ki: 0.035 ± 0.015 µM

B10: G228A-5' (structured_DNA)
DNA: B2 DNA with G39A
ecMutS [1]; [5]
  Kd: 0.024 ± 0.006 µM
ecMutL; [5]
  Kd: 0.17 ± 0.04 µM

B11: G228A (unlabeled) (structured_DNA)
DNA: B2 DNA with G39A
ecMutS [2]
  IC50: 0.035 ± 0.004 µM
  Ki: 0.031 ± 0.006 µM

B12: G242,243A (unlabeled) (structured_DNA)
DNA: B2 DNA with G53A, G54A
ecMutS [2]
  IC50: 0.028 ± 0.007 µM
  Ki: 0.025 ± 0.008 µM

B13: G242,243A-5' (structured_DNA)
DNA: B2 DNA with G53A, G54A
ecMutS [1]; [5]
  Kd: 0.027 ± 0.004 µM
ecMutL; [5]
  Kd: 0.11 ± 0.02 µM

B14: ds76-G/T-3' (dsDNA)
DNA 1: ATAGGACGCTGACACTGGTGCTTGGCAGCTGAGCCATATGCTCGAGTAACGCTCATAGGATCCAAGCGCGAAAGGA
DNA 2: TCCTTTCGCGCTTGGATCCTATGAGCGTTACTCGAGCATATGGCTCAGCTGCCAGGCACCAGTGTCAGCGTCCTAT
ecMutS [3]
  Kd: 0.035 ± 0.003 µM

B15: ds96/96* (dsDNA)
DNA 1: ACCTGGATGCCTATAGGGCGAATTGGGTACCGCTGAATTGCACTGGACTTGATCCTCGATGATCCTAAGCTAAGCTTCAGCTCCAGCCTAAGCCTG
DNA 2: CAGGCTTAGGCTGGAGCTGAAGCTTAGCTTAGGATCATCGAGGATCGAGTCCGGTGCAATTCAGCGGTACCCAATTCGCCCTATAGGCATCCAGGT
ngMutL; label: 3'-TAMRA on strand 1, blunt
  Kd: 0.125 ± 0.005 µM
